Target: FLAG-GLUT4 (GLUT4 tagged at the N and C termini with FLAG and His9, tags not cleaved) (UniProt P19357)
Assay: SDS-PAGE and Western blot; anti-FLAG immunoblot of purified FLAG-GLUT4 before and after TEV protease cleavage (0, 3 and 24 h) in LMNG detergent micelles or in 70% egg PC, 15% POPA, 15% POPE liposomes

For “FLAG-GLUT4 (GLUT4 tagged at the N and C termini with FLAG and His9, tags not cleaved) (from UniProt P19357 1-509) (natural protein)”, which stoichiometry N is on record?
Its stoichiometry N is 2.

Source: article PMC5016126
